Source: patent US20220125947A1 (published 2022)

Key:
[1] = molecular target: T1, γδ T cell receptor on human γδ T cells (human); experiment: flow cytometry, dose-response (DRC) binding at 37°C on human γδ T cells
T1 construct: also called AG000003021 (γδ T cells)
Method: (§1) Binding of antibodies to human γδ T cells or SKW cell lines expressing Vγ9/Vδ2, Vγ9/Vδ2 or Vγ5/Vδ2 was carried out by flow cytometry. Briefly, the cells were centrifuged at 300×g for 5 minutes and the pellet was resuspended in 34 ml fresh media (in RPMI+10% FBS). 50 μL of the cells were then plated (44K cells/well) into assay plates. Samples were incubated for one hour at 37° C. in tissue culture (TC) incubator followed by wash steps by adding 100 μl FACS staining buffer. Secondary detention antibodies (A647 conjugated anti-human IgG Fc specific antibody (2 μg/mL) along with AF488 anti mouse CD3, clone OKT3 at 1 ug/mL) were added at 50 μL/well to appropriate wells according to the plate map. After incubating for 60 minutes at 37° C. in the TC incubator, cells were again washed as described above. This is followed by resuspension in 20 μL/well running buffer containing 1:1000 dilution of Sytox blue dead cell stain and the plates were run on iQue Screener.
(§2) Gating and data analysis: Human anti-human Vγ9 antibody (VG9B2 mAb at 10 nM) was used to mark the gating of positive population. All cells were first gated for singlets on SCS-A vs. SCS-H dot plot, live/dead followed by CD3 positive population, and this subset of CD3 positive population was gated for Vγ9 positive binding using positive control mAb. Cells were also assessed for cell binding of control mAbs by RL1 (A647) Geomeans from the live cell population. Advanced metrics were used and normalization metrics were chosen to calculate fold over background wells containing secondary antibody alone (designated as ‘background’ within ForeCyt settings).

[2] = molecular target: T2, gamma-delta T cell receptor on human γδ T cells (human); experiment: flow cytometry, dose-response binding at 37 C, human γδ T cells
T2 construct: also called AG000003021 (γδ T cells)
Method: as §1, §2

| Binder | Max. Activity [1] [fold over background] | Max. Activity [2] [fold over background] |
| --- | --- | --- |
| VG9B169 (antibody, human IgG1, lambda, V domains shown, also called antibody #63) VH: EVQLLESGPGLVKPSETLSLTCSVSGGSITNYFWNWIRQPPGKGLEWIGYIFYSGSTSYNPSLKSRVTISVDTSKNRFSLKLISVTAADTAVYYCARVGRWELRTAFDIWGQGTMVTVSS VL: not shown | 3250 | – |
| VG9B639 (antibody, human IgG1, kappa, V domains shown, also called antibody #64) VH: QVQLVQSGGGLVKPGGSLRLSCAASGFTFTTYRMNWVRQAPGKGLEWVSSISSSSIYIHSADSVKGRFTISRDNAKNSLYLQMNSLRAEDSAIYYCARERVYTVSFDYWGQGTLVTVSS VL: DIQMTQSPSSLSASVGDRVTITCQASQDISHYLNWYQQKPGKAPKLLIYDSYILETGVTSRFSGSGSGTDFTFTINSLQPEDIAIYYCQQYDNLPYTFGQGTKVEIKR | 3240 | – |
| VG9B201 (antibody, human IgG1, lambda, V domains shown, also called antibody #65) VH: QVTLKESGPTLVKPTQTLTLTCTFSGFSLTTHGVGVGWIRQPPRKALEWLALIYWNADKHYSPSLKSRLTITKDTSKNQVVLTMTHMDPVDTATYYCAHEGDWGHYFDFWGQGTLVTVSS VL: QLVLTQPPSVSAAPGQKVTISCSGSSSNIGNNDVSWYQQLPGTAPKLLIYDNNRRPSGIPDRFSGSKSGTSATLGITGLQTGDEADYYCETWDSSLSAIWVFGGGTKVTVLG | 3170 | – |
| VG9B161 (antibody, human IgG1, lambda, V domains shown, also called antibody #66) VH: QVQLQESGPGLVKPSETLSLTCTVSGGSISSYFWSWIRQPPGKGLEWIGYIFYSGSTNYNPSLKSRVTILVDTSKNHFSLKLSSVTAADTAVYYCARVGRWELRGAFDIWGQGTMVTVSS VL: not shown | 2820 | – |
| VG9B383 (antibody, human IgG1, lambda, V domains shown, also called antibody #67) VH: QVQLQESGPGLVKPSETLSLTCTVSSGSISSYYWNWIRQPAGKGLEWVGRIYTIGNTNYNPSLKSRVTMSIDTSKNQFSLNLSSVTAADTAVYFCAREGYYDSSGSFFPGAFGIWGQGTMVTVSS VL: SSELTQPASVSGSPGQSITISCTGTSNDVGSYNLVSWYQQHPGKAPKLMIYAGSKRPSGISNRFSGSKSGNTASLTISGLQAEDEADYYCCSFAGATNVVFGGGTKLTVLG | 2780 | – |
| VG9B382 (antibody, human IgG1, lambda, V domains shown, also called antibody #68) VH: QVQLQESGPGLVKPSETLSLTCTVSGDSISGYYWNYIRQPAGKGLDWIGRIFTTGNTNYNPSLKSRVTMSVDTSKNQFSLKLTSVTAADTAVYYCARERWDSSSSALYFDYWGQGTLVTVSS VL: QSVLTQPPSVSGAPGQRVTISCTGSSSNIGADYDIKWYQQLPGTAPKLLIYGNSNRPSGVPDRFSGSKSGTSVSLAITGLQAEDEADYYCQSYDSSMSGYVVFGGGTKLTVLG | 2780 | – |
| VG9B156 (antibody, human IgG1, lambda, V domains shown, also called antibody #69) VH: QVQLQESGPGLMKPSETLSLTCTVSNGSISGYFWNWIRQPPGKGLEWIGYIFYSGSTNYNPSLKSRVTISVDTSKNLVSLKLNSVTAADTAVYFCAKLGKWELRTAFDIWGQGTMVTVSS VL: not shown | 2700 | – |
| VG9B205 (antibody, human IgG1, lambda, V domains shown, also called antibody #70) VH: QVQLVQSGPGLMKPSETLSLTCTVSNGSISGYFWNWIRQPPGKGLEWIGYIFYSGSTNYNPSLKSRVTISVDTSKNLVSLKLNSVTAADTAVYFCAKLGKWELRTAFDIWGQGTMVTVSS VL: not shown | 2690 | – |
| VG9B86 (antibody, human IgG1, kappa, V domains shown, also called antibody #71) VH: QVQLQESGPGLVKPSETLSLTCTVSGDSISSSYWSWIRQPAGKGLECIGRFYSSGSTSYNPSLKSRVTMAIDTSKNQFSLKLTSVTAADTAVYYCARYSGSYWYFDLWGRGTTVTVSS VL: EIVLTQSPATLSLSPGERATLSCRASQSVSSYLAWYQQRPGQAPRLLIYDTSNRATGIPARFSGSGSGTDFTLTISSLAPEDFAVYYCQQRSDWLLTFGGGTKVEIKR | 2670 | – |
| VG9B154 (antibody, human IgG1, lambda, V domains shown, also called antibody #72) VH: QVQLQESGPGLVKPSETLSLTCTVSGGSISYYFWNWIRQPPGKGLEWIGYIYYSGSTNYNPSLKSRVTISLDTSKNQFSLKLSSVTAADTAVYYCAREGKWELRTTFDIWGQGTMVTVSS VL: not shown | 2590 | – |
| VG9B159 (antibody, human IgG1, lambda, V domains shown, also called antibody #73) VH: EVQLVQSGPGLVKPSETLSLTCTVSGGSISSYYWSWIRQPAGKGLEWIGRFYTGGRNNYNPSFKSRVTMSVDTSQNQFSLKLSSVTAADTAVYYCARDMEYYYDRSGYSYWYFDLWGRGTTVTVSS VL: SYELMQPPSVSVAPGQTARITCGGNNIGSKSVHWYQQKPGQAPVLVVYDDSDRPSGIPERFSGSNSGNTATLTISRVEAGDEADYYCQVWDSSSDHVVFGGGTKLTVLG | 2510 | – |
| VG9B465 (antibody, human IgG1, lambda, V domains shown, also called antibody #74) VH: QVQLQQSGPGLVKPSETLSLTCTVSGGSITSYYWNWIRQPAGKGLEWIGRIYTIGNTNYNPSLKSRVTMSIDTSKHQFSLKLSSVTGADTAVYYCAREGYYESDGSFFPGAFNIWGQGTMVTVSS VL: SSELTQPASVSGSPGQSITISCTGTSNDVGSYNLVSWYQQHPGKAPKLMIYAGSKRPSGISNRFSGSKSGNTASLTISGLQAEDEADYYCCSYAGTTNVVFGGGTKVTVLG | 2500 | – |
| VG9B194 (antibody, human IgG1, lambda, V domains shown, also called antibody #75) VH: EVQLLESGAEVKKPGASVKVSCKASGYTFTGDYMHWVRQAPGQGLEWMGWINPNSGYTNNAEKFQGRVTMTRDTSISTAYMELSRLSSDDTAVYYCTRELDALDVWGQGTMVTVSS VL: QSVLTQPPSASGSPGQSVTISCTGTSSDVGGYNYVSWYQQHPGKAPKLMIYEVSKRPSGVPDRFSGSKSGNTASLTVSGLQAEDEADYYCNSYAGSNNFEVFGGGTKVTVLG | 2470 | – |
| VG9B182 (antibody, human IgG1, lambda, V domains shown, also called antibody #76) VH: QVQLVESGPGLVKPSETLSLTCTVSGDSINNHFWSWIRQPPGKGLEWIGFVFYNGNTNYNPSLKSRVTISIDTSKSQFSLKLTSVTAADTAVYYCARVGRWVLRTAFDIWGQGTMVTVSS VL: not shown | 2370 | – |
| VG9B173 (antibody, human IgG1, lambda, V domains shown, also called antibody #77) VH: QVQLQESGPGLVKPSETLSLTCTVSGGSINNYFWSWIRQPPGKGLEWIGYIYYSGSTNYNPSLKSRVTISVVTSMNQFSLKLSSVTAADTAVYYCAREGKWELRSAFDIWGQGTMVTVSS VL: not shown | 2360 | – |
| VG9B87 (antibody, human IgG1, kappa, V domains shown, IgG1, kappa) VH: QVQLVESGAEVKKPGASVKVSCKASGYTFTSEYIHWVRQAPGQGLEWMGIINPSGGSTSYAQRFQGRVTMTRDTSTSTVYMEVNSLRSEDTAVYYCARERGYSYGSFDYWGQGTLVTVSS VL: EIVLTQSPSFLSASAGDRVTITCRASQGISSYLAWYQQKPEKAPKLLIYAASTLQSGVPSRFSGSGSGTEFTLTISSLQPEDFATYYCQQFNSYSLTFGGGTKLEIKR | – | 2330 |
| VG9B208 (antibody, human IgG1, lambda, V domains shown, IgG1, lambda) VH: QVQLQESGPGLVKPSETLSLTCTVSGGSISGYYWSWIRQPPGKGLELIGYIFYSGSINYNPSLKNRVTISLDTSKNQFSLKLTSVTAADTAVYYCARVGKWELRSSFDIWGQGTMVTVSS VL: QSVLTQPPSVSAAPGQKVTISCSGSTSNIGNNDVSWYQQLPGTAPKLLIYDNNKRPSGIPDRFSGSKSGTSATLGITGLQTGDEADYYCGTWDSSLSVWVFGGGTKLTVLG | – | 2310 |
| VG9B372 (antibody, human IgG1, kappa, V domains shown, IgG1, kappa) VH: QVQLQESGPGLVKPSQTLSLTCTVSGGSISNGGFYWSWIRQHPGKGLEWLGYINYSGSTYYNPSLESRGTISLDTSKNQFSLKLRSVTAADTAVYYCARDRNYEWNFDLWGRGTLVTVSS VL: EIVMTQSPATLSLSPGEGATLSCRASQSVSSYLAWYQQKPGQAPRLLVYDASNRATGIPARFSGSGSGTAFTLTITSLEPEDFVVYYCQQRSNWPLTFGGGTKLEIKR | – | 2290 |
| VG9B186 (antibody, human IgG1, lambda, V domains shown, IgG1, lambda) VH: QVTLRESGPVLVKPTETLTLTCTVSGFSLTNIRMSVSWIRQPPGEALEWLAHIFSNDEKSYNSSLKSRLTISRDTSKSQVVLTLTNVDPVDTATYYCARMRLPYGMDVWGQGTMVTVSS VL: not shown | – | 2290 |
| VG9B177 (antibody, human IgG1, lambda, V domains shown, IgG1, lambda) VH: QVQLQESGPGLVKPSETLSLTCTVSGGSINNYFWSWIRQPPGKGLEWIGYIFYSGSTNYNPSLKSRVTISIDTSKNQFSLKVNSVTAADTAVYYCARVGKWELRTAFDIWGQGTMVTVSS VL: QSALTQPASVSGSPGQSITISCTGTSSDVADYNYVSWYQQHPGKAPKLMIYEVSNRPSGVSNRFSGSKSGNTASLTISGLQAEDEADYYCCSYTSSFTVVFGGGTKVTVLG | – | 2250 |
| VG9B114 (antibody, human IgG1, kappa, V domains shown, IgG1, kappa) VH: EVQLVESGGDLVQPGGSLRLSCAASGFTFSRYDMHWVRQATGKGLEWVSAIGSAGDTYYPGSVKGRFTISRENAKNSLYLQMNSLRAGDTAVYYCARGKWELRDAFDIWGQGTMVTVSS VL: DIVMTQSPSFLSASVGDRVTITCRASQGIHSYLAWYQQKPGKAPKLLIYVASTLQSGVPSRFSGSRSGTEFTLTISSLQPEDFATYYCQQLNSYPYTFGQGTKLEIKR | – | 1980 |
| VG9B147 (antibody, human IgG1, lambda, V domains shown, IgG1, lambda) VH: QVQLQESGPGLVNPSETLSLTCTVSGGSISGYFWNWIRQPPGKGLEWIGYIFYSGSTNYNPSLKSRVTISVDTSKNQFSLKLSSVTAADTAIYYCAREGKWELRSTFDIWGQGTMVTVSS VL: SSELTQDPAVSVALGQTVRITCQGDSLRSYYATWYQQKPGQAPILVIYGENNRPSGIPDRFSGSRSGNTASLTITGAQAEDEADYYCNSRDTGDHHLVFGGGTKLTVLG | – | 1890 |
